In patent US6682911 (GENERAL HOSPITAL, dated 2004):

Molecular target: T1, human laminin β1 subunit (human, UniProt P07942 22-1786)
T1 construct: 185 kDa chain from laminin 12 isolated from human placental chorionic villi, reduced and resolved by SDS-PAGE; also called 185 kDa band; 185 kDa chain
Experiment: trimer isolated from placenta; non-reducing then reducing SDS-PAGE and peptide sequencing of the chains
Source text: Protein sequencing was done according to Aebersold et al. (1987). The complex laminin 5-laminin 7 was run on a polyacrylamide gel in the presence of 2-mercaptoethanol and blotted onto a nitrocellulose membrane (Biorad). The 190 kDa band of β2 and the 165 kDa α3 band were separately excised and digested by protease trypsin. The digested product was separated by HPLC and one fragment was sequenced on an Applied Biosystems sequenator (Applied Biosystems, Foster City, Calif.). The 205 kDa chain contained a sequence identical to human laminin α2, and was thus identified as human laminin α2 subunit. The 185 kDa produced two peptides identical to human β1, and was thus identified as human laminin β1 subunit. The band at 170 kDa contained three sequences not contained in any known laminin chain. A N-terminal sequence of the 170 kDa chain was also determined. In addition, the N-terminal sequence was not identical to any known laminin sequence.

T1 sequence (P07942 22-1786 Q1022R limits assumed): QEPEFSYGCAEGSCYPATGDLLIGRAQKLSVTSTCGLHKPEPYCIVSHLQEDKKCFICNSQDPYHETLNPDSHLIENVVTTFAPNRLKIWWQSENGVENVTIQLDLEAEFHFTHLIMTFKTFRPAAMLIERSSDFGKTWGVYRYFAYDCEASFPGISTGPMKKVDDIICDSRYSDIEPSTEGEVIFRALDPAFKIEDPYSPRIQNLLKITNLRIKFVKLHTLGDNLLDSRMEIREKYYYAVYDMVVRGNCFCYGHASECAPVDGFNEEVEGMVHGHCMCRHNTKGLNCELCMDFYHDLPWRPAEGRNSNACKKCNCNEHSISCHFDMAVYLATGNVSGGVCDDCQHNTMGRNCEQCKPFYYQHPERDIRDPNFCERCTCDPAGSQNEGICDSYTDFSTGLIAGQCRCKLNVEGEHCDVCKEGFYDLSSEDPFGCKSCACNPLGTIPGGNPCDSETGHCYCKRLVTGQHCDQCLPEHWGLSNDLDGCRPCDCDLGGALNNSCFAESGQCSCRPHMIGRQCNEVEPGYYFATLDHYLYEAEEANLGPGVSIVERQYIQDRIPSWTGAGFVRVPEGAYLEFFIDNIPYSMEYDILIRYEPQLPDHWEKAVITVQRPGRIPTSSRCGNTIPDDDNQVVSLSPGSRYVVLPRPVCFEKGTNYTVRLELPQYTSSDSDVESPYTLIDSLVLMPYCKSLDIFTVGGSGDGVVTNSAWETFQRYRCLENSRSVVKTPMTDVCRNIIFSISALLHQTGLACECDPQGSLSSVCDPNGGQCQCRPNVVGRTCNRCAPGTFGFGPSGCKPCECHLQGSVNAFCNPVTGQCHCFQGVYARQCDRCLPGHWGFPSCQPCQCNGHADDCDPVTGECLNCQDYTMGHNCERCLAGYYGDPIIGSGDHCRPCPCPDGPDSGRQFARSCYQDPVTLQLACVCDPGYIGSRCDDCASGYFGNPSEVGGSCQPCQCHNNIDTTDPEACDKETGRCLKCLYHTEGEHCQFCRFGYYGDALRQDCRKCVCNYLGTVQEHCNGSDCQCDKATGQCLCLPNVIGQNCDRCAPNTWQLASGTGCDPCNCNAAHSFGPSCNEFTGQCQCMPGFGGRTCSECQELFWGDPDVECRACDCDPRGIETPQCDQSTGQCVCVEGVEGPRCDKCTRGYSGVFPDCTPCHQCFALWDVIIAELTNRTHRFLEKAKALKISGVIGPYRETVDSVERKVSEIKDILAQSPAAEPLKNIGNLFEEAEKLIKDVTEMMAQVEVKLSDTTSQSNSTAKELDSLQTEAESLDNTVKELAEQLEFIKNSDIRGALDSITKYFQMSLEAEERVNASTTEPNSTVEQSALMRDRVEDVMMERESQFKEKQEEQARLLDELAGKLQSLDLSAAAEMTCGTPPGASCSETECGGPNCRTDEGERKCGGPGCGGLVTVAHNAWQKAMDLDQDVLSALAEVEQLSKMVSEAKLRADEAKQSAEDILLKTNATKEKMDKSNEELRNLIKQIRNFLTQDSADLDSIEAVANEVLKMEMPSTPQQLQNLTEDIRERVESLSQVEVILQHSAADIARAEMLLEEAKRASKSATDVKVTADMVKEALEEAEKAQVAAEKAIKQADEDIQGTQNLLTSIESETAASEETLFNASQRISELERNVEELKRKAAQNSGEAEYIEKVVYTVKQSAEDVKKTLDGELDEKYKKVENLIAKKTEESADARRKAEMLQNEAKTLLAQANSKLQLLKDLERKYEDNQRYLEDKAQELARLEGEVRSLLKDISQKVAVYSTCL

binding result: binds
B1: human laminin γ3 subunit (other)
chain: AGMGACYDGAGRPQRCLPVFENAAFGRLAQASHTCGSPPEDFCPHVGAAGAGAHCQRCDAADPQRHHNASYLTDFHSQDESTWWQSPSMAFGVQYPTSVNITLRLGKAYEITYVRLKFHTSRPESFAIYKRSRADGPWEPYQFYSASCQKTYGRPEGQYLRPGEDERVAFCTSEFSDISPLSGGNVAFSTLEGRPSAYNFEESPGLQEWVTSTELLISLDRLNTFGDDIFKDPKVLQSYYYAVSDFSVGGRCKCNGHASECGPDVAGQLACRCQHNTTGTDCERCLPFFQDRPWARGTAEAAHECLPCNCSGRSEECTFDRELFRSTGHGGRCHHCRDHTAGPHCERCQENFYHWDPRMPCQPCDCQSAGSLHLQCDDTGTCACKPTVTGWKCDRCLPGFHSLSEGGCRPCTCNPAGSLDTCDPRSGRCPCKENVEGNLCDRCRPGTFNLQPHNPAGCSSCFCYGHSKVCASTAQFQVHHILSDFHQGAEGWWARSVGGSEHSPQWSPNGVLLSPEDEEELTAPGKFLGDQRFSYGQPLILTFRVPPGDSPLPVQLRLEGTGLALSLRHSSLSGPQDARASQGGRAQVPLQETSEDVAPPLPPFHFQRLLANLTSLRLRVSPGPSPAGPVFLTEVRLTSARPGLSPPASWVEICSCPTGYTGQFCESCAPGYKREMPQGGPYASCVPCTCNQHGTCDPNTGICVCSHHTEGPSCERCLPGFYGNPFAGQADDCQPCPCPGQSACTTIPESGEVVCTHCPPGQRGRRCEVCDDGFFGDPLGLFGHPQPCHQCQCSGNVDPNAVGNCDPLSGHCLRCLHNTTGDHCEHCQEGFYGSALAPRPADKCMPCSCHPQGSVSEQMPCDPVTGQCSCLPHVTARDCSRCYPGFFDLQPGRGCRSCKCHPLGSQEDQCHPKTGQCTCRPGVTGQACDRCQLGFFGSSIKGCRACRCSPLGAASAQCHYNGTCVCRPGFEGYKCDRCHYNFFLTADGTHCQQCPSCYALVKEETAKLKARLTLTEGWLQGSDCGSPWGPLDILLGEAPRGDVYQGHHLLPGAREAFLEQMMGLEGAVKAAREQLQRLNKGARCAQAGSQKTCTQLADLEAVLESSEEEILHAAAILASLEIPQEGPSQPTKWSHLAIEARALARSHRDTATKIAATAWRALLASNTSYALLWNLLEGRVALETQRDLEDRYQEVQAAQKALRTAVAEVLPEAESVLATVQQVGADTAPYLALLASPGALPQKSRAEDLGLKAKALEKTVASWQHMATEAARTLQTAAQATLRQTEPLTMARSRLTATFASQLHQGARAALTQASSSVQAATVTVMGARTLLADLEGMKLQFPRPKDQAALQRKADSVSDRLLADTRKKTKQAERMLGNAAPLSSSAKKKGREAEVLAKDSAKLAKALLRERKQAHRRASRLTSQTQATLQQASQQVLASEARRQELEEAERVGAGLSEMEQQIRESRISLEKDIETLSELLARLGSLDTHQAPAQALNETQWALERLRLQLGSPGSLQRKLSLLEQESQQQELQIQGFESDLAEIRADKQNLEAILHSLPENCASWQ
notes: 170 kDa chain from laminin 12 isolated from human placental chorionic villi, reduced and resolved by SDS-PAGE; also called 170 kDa γ3 chain; 170 kDa band
